Read-outs that look alike come from different tables or passages of the source.
B1: BI655130 (antibody, human IgG1, kappa, L234A L235A)
heavy: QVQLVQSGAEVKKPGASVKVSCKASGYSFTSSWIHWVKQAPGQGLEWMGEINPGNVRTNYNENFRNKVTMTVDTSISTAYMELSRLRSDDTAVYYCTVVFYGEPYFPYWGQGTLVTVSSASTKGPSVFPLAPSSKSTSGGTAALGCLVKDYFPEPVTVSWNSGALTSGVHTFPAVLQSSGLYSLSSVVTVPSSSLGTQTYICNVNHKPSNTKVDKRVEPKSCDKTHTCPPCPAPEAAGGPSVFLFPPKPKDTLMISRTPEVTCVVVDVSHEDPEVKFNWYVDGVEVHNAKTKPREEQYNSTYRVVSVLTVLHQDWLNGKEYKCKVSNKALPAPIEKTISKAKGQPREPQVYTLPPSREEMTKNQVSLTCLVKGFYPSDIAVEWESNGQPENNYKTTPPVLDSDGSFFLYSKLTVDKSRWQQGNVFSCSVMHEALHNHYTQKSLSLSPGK
light: QIVLTQSPGTLSLSPGERATMTCTASSSVSSSYFHWYQQKPGQAPRLWIYRTSRLASGVPDRFSGSGSGTDFTLTISRLEPEDAATYYCHQFHRSPLTFGAGTKLEIKRTVAAPSVFIFPPSDEQLKSGTASVVCLLNNFYPREAKVQWKVDNALQSGNSQESVTEQDSKDSTYSLSSTLTLSKADYEKHKVYACEVTHQGLSSPVTKSFNRGEC
notes: also called Spesolimab
B2: hz72C1-2.2 (antibody, human IgG4 S228P, kappa)
heavy: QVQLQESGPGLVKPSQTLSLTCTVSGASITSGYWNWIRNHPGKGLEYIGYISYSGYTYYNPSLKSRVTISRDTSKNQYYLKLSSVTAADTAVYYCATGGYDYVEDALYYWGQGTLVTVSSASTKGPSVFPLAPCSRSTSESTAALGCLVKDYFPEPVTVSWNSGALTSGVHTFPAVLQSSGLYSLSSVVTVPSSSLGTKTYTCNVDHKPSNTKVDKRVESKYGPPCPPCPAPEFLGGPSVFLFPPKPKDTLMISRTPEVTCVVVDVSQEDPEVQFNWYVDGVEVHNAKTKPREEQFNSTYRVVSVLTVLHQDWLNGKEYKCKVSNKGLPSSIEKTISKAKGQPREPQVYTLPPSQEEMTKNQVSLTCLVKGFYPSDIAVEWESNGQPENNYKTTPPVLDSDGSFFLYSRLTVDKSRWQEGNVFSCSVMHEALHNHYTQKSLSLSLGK
light: DIQMTQSPSSLSASVGDRVTITCRASSNVRYMYWYQQKPGKAPKLWIYLTSNLASGVPSRFSGSGSGTSYTLTISSLQPEDFATYYCQQYTTSPYTFGQGTKLEIKRTVAAPSVFIFPPSDEQLKSGTASVVCLLNNFYPREAKVQWKVDNALQSGNSQESVTEQDSKDSTYSLSSTLTLSKADYEKHKVYACEVTHQGLSSPVTKSFNRGEC
notes: Humanized, human IgG4 / kappa
B3: hz72C1-2.3 (antibody, human IgG4 S228P, kappa)
heavy: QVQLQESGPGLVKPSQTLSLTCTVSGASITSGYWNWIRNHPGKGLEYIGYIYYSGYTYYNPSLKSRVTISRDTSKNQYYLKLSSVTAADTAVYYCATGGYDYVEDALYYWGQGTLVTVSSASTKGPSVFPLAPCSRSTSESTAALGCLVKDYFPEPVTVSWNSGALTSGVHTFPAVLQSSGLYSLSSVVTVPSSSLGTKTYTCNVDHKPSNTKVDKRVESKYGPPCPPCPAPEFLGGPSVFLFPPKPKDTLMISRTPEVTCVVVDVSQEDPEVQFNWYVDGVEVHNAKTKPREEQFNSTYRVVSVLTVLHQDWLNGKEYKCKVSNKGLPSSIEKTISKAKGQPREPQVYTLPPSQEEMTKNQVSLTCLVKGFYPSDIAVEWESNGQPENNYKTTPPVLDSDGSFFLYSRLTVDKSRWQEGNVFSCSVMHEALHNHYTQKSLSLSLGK
light: B2 light
notes: Humanized, human IgG4 / kappa

Experiments:
[1] = target: T1, human IL-36R overexpressed on 293T-hIL36R-NFκB cells (human, UniProt Q9HB29 20-575); assay: cell-based or functional assay
T1 sequence: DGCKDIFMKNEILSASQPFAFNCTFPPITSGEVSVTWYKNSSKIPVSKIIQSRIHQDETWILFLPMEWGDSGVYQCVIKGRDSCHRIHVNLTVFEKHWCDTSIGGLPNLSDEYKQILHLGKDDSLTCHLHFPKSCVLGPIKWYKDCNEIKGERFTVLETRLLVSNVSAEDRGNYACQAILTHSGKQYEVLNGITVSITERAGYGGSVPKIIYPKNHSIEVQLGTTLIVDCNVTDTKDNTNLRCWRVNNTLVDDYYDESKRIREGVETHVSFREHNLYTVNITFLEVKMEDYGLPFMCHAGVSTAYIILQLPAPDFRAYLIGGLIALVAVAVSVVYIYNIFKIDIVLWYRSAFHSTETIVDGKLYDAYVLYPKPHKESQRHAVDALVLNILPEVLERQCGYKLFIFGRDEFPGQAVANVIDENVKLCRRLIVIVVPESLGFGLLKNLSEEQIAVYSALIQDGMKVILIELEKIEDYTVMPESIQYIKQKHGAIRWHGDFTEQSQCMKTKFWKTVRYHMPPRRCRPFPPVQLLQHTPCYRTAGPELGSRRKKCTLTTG

[2] = target: T2, IL-36R naturally expressed on OVCAR8 cells and on normal human epidermal keratinocytes (NHK cells) (human, UniProt Q9HB29 20-575); assay: cell-based or functional assay
T2 sequence (looked up): T1 sequence

[3] = target: T2, IL-36R naturally expressed on OVCAR8 …; assay: cell-based or functional assay; remark: listed apart in the source
[4] = target: T1, human IL-36R overexpressed on …; assay: FACS on 293T-hIL36R-NFκB cells, ratio of MFI to background MFI
Protocol: (§1) After the cells was washed with PBS, the cells were resuspended with 100 μL of PBS and then the fluorescence signal was detected using a flow cytometer (BD, Accuri C6). […] The ratio was the ratio of mean fluorescence intensity (MFI) of the experimental group/the background MFI, and the resulting data were analyzed using GraphPad Prism.
(§2) Affinity, binding and blocking assays for humanized antibodies hz72C1-1.1, hz72C1-1.2, hz72C1-1.3, hz72C1-2.1, hz72C1-2.2 and hz72C1-2.3 as well as hz84C4-1.1, hz84C4-1.2, hz84C4-1.3, hz84C4-1.4, hz84C4-1.5, hz84C4-2.1, hz84C4-2.2, hz84C4-2.3, hz84C4-2.4 and hz84C4-2.5 were performed according to the methods of Example 4, Example 5. Example 6, Example 7 and Example 8.

[5] = target: T3, cynomolgus IL-36R overexpressed on 293T-CynoIL36R-NFκB cells (cynomolgus monkey); assay: FACS on 293T-CynoIL36R-NFκB cells, ratio of MFI to background MFI
T3 construct: Entry includes the signal peptide; also called monkey IL-36R
T3 chain: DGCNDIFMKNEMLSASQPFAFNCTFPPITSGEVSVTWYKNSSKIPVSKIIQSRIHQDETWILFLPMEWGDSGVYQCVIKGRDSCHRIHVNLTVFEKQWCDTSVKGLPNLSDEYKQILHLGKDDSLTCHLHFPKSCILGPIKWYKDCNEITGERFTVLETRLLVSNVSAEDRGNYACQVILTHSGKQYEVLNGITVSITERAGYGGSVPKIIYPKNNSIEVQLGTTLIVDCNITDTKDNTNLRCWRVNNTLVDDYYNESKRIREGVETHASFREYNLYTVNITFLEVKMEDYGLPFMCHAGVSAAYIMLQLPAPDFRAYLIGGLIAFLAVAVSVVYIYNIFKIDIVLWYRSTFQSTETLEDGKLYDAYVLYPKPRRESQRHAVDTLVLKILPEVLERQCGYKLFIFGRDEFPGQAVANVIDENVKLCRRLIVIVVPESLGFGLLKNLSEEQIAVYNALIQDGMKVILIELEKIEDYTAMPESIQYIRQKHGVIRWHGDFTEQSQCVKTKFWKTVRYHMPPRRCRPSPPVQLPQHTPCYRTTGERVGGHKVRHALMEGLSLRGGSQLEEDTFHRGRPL
Protocol: as §1, §2

Binder	IC50 (M); hIL36α; NFκB-luciferase [1]	IC50 (M); hIL36αβγ; NFκB-luciferase [1]	IC50 (M); hIL36β; NFκB-luciferase [1]	IC50 (M); hIL36γ; NFκB-luciferase [1]	Maximum inhibition rate %; hIL36α; NFκB-luciferase [1]	Maximum inhibition rate %; hIL36αβγ; NFκB-luciferase [1]	Maximum inhibition rate %; hIL36β; NFκB-luciferase [1]	Maximum inhibition rate %; hIL36γ; NFκB-luciferase [1]	IC50 (M); hIL36α; IL-8 production [2]	IC50 (M); hIL36αβγ; IL-8 production [2]	IC50 (M); hIL36β; IL-8 production [2]	IC50 (M); hIL36γ; IL-8 production [2]	Maximum inhibition rate %; hIL36α; IL-8 production [2]	Maximum inhibition rate %; hIL36αβγ; IL-8 production [2]	Maximum inhibition rate %; hIL36β; IL-8 production [2]	Maximum inhibition rate %; hIL36γ; IL-8 production [2]	EC50 [5]	also measured
B1	6.09e-09 M	2.36e-08 M	2.45e-09 M	~1.32e-08 M	84.5%	81.2%	86.7%	79.2%	4.34e-11 M	4.88e-11 M	1.57e-11 M	1.42e-11 M	99.8%	99.9%	99.7%	99.7%	5.64 nM	IC50 (M); hIL36α; IL-8 production [3]: 6.33e-11 M; IC50 (M); hIL36αβγ; IL-8 production [3]: 7.27e-11 M; IC50 (M); hIL36β; IL-8 production [3]: 3.29e-11 M; IC50 (M); hIL36γ; IL-8 production [3]: 2.63e-11 M; Maximum inhibition rate %; hIL36α; IL-8 production [3]: 101%; Maximum inhibition rate %; hIL36αβγ; IL-8 production [3]: 90.7%; Maximum inhibition rate %; hIL36β; IL-8 production [3]: 97.1%; Maximum inhibition rate %; hIL36γ; IL-8 production [3]: 107%; EC50 [4]: 9.82 nM
B2	1.61e-08 M	~4.44e-08 M	4.66e-09 M	3.68e-08 M	92%	77.9%	94.7%	87.9%	1.94e-10 M	2.3e-10 M	1.45e-10 M	7.6e-11 M	98.5%	97.1%	98%	97.7%	7.25 nM	
B3	1.61e-08 M	~1.39e-08 M	2.93e-09 M	2.94e-08 M	90.8%	66.3%	83.7%	89%	2.17e-10 M	3.58e-10 M	1.67e-10 M	5.31e-11 M	98.1%	95%	97.9%	97.7%	4.84 nM	

Source: patent US20240270857A1 (CHIA TAI TIANQING PHARMACEUTICAL GROUP, published 2024)
